Experimental data reported in paper PMC7522722, “Differential epigenetic regulation between the alternative promoters, PRDM1α and PRDM1β, of the tumour suppressor gene PRDM1 in human multiple myeloma cells”.

B1: wtFOXA1 probe (dsDNA)
DNA 1: GGAAAGTGCAAGTCTGGACATGTTTATCAAGAGG
DNA 2: CCTCTTGATAAACATGTCCAGACTTGCACTTTC
B2: TP53 probe (putative TP53 site, Panomics) (dsDNA)
DNA 1: TACAGAACATGTCTAAGCATGCTGGGG
DNA 2: GCCCCAGCATGCTTAGACATGTTCTGTA

How the values were obtained:
[1] = biological target: T1, TP53 (recombinant human, Calbiochem 506165) (human, UniProt P04637 1-393); test: EMSA; shifted band faded by anti-TP53 antibody; EMSA as in a cited earlier paper; buffer, salt, pH and temperature not given; competitor 100x excess added 10 min before probe; antibody preincubation 1 h on ice; conditions: protein: commercial; chain copies: 4; label: 32P (Klenow fill-in with [alpha-32P]-dCTP); 5' overhang 1 nt (G) on strand 1, filled in with labelled dC
[2] = biological target: T1, TP53 (recombinant human, Calbiochem …); test: EMSA; anti-TP53 antibody tested; EMSA as in a cited earlier paper; buffer, salt, pH and temperature not given; competitor 100x excess added 10 min before probe; antibody preincubation 1 h on ice; conditions: protein: commercial; chain copies: 4; label: 32P (Klenow fill-in with [alpha-32P]-dCTP); 5' overhang 1 nt (G) on strand 2, filled in with labelled dC

T1 sequence (P04637 whole entry): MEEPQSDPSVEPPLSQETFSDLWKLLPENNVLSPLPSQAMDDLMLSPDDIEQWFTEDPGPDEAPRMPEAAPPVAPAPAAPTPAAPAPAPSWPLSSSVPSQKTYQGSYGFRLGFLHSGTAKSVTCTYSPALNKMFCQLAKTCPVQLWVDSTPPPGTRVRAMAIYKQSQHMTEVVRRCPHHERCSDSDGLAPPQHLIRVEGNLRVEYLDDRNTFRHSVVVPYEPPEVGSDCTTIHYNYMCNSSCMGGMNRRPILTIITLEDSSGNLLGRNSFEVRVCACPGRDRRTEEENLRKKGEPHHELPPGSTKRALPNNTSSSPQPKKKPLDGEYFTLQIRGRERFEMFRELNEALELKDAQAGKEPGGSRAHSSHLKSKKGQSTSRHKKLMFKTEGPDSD

Row | Binder | binding result [1] | binding result [2]
1 | B1 | binds | 
2 | B2 |  | binds
